This is an account of results in publication PMC11543664.

In experiment [1] the target is DosP^FLAG-R97A (full-length DosP with R97A and three copies of the FLAG motif on its C-terminus) (Escherichia coli). Nature of the experiment: cryo-EM structure.
Experiment [2] deals with DosP^WT (wild-type full-length DosP, tag-free after TEV cleavage) (Escherichia coli). Nature of the experiment: cryo-EM structure.

For the substance “DosP^FLAG-R97A (full-length DosP with R97A and three copies of the FLAG motif on its C-terminus) (enzyme)”, the stoichiometry N (commonly the number of molecules, sites or subunits per partner or assembly) in experiment [1] came out at 2.

In turn, “DosP^WT (wild-type full-length DosP, tag-free after TEV cleavage) (enzyme)” had a stoichiometry N in experiment [2] of 2.
